Test results as given in patent US20230357348A1 (AstraZeneca / MedImmune, published 2023).
Starred links: 1 amine or outer side, 2 acyl side, 3 side chain; linkers in the order of their positions; H or OH if unused. Non-standard residues stand in square brackets, D forms with d. Groups on a side chain read outwards from the residue. No end group written: not given here. *: point of attachment. C20 diacid = O=C(O)CCCCCCCCCCCCCCCCCCC(=O)*; C18 diacid = O=C(O)CCCCCCCCCCCCCCCCC(=O)*; γGlu = O=C(O)[C@H](CCC(=O)[*:2])N[*:1]; αMeF = C[C@](N)(Cc1ccccc1)C(=O)O; AEEA = NCCOCCOCC(=O)O; Aib = CC(C)(N)C(=O)O

Assays:
[1] = target: human glucagon receptor (hGCGR) (human, UniProt P47871 26-477); experiment: cell-based or functional assay
[2] = target: human GLP-1 receptor (hGLP-1R) (human, UniProt P43220 24-463); experiment: cell-based or functional assay

human glucagon receptor (hGCGR), sequence (P47871 26-477): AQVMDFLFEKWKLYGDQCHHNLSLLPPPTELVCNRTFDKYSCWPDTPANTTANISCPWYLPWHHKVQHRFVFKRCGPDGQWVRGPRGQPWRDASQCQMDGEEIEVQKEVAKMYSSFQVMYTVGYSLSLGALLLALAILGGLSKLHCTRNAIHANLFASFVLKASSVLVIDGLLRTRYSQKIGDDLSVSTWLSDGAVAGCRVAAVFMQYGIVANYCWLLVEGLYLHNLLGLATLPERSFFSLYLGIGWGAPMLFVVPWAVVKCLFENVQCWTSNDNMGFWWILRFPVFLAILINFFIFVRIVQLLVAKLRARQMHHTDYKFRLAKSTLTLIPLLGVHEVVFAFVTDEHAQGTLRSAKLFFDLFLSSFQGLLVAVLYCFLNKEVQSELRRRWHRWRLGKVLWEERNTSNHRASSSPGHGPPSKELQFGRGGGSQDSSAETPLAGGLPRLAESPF

B1: Peptide 478 (peptide)
peptide: H[Aib]QGTFTSDVSK[αMeF]LDTK([AEEA-AEEA-γGlu-C18 diacid])RAQDFVRWLLE[Aib]K-NH2
modifications: N-terminus assumed
SMILES: CC(C)C[C@H](NC(=O)[C@H](Cc1c[nH]c2ccccc12)NC(=O)[C@H](CCCNC(=N)N)NC(=O)[C@@H](NC(=O)[C@H](Cc1ccccc1)NC(=O)[C@H](CC(=O)O)NC(=O)[C@H](CCC(N)=O)NC(=O)[C@H](C)NC(=O)[C@H](CCCNC(=N)N)NC(=O)[C@H](CCCCNC(=O)COCCOCCNC(=O)COCCOCCNC(=O)CC[C@H](NC(=O)CCCCCCCCCCCCCCCCC(=O)O)C(=O)O)NC(=O)[C@@H](NC(=O)[C@H](CC(=O)O)NC(=O)[C@H](CC(C)C)NC(=O)[C@](C)(Cc1ccccc1)NC(=O)[C@H](CCCCN)NC(=O)[C@H](CO)NC(=O)[C@@H](NC(=O)[C@H](CC(=O)O)NC(=O)[C@H](CO)NC(=O)[C@@H](NC(=O)[C@H](Cc1ccccc1)NC(=O)[C@@H](NC(=O)CNC(=O)[C@H](CCC(N)=O)NC(=O)C(C)(C)NC(=O)[C@@H](N)Cc1c[nH]cn1)[C@@H](C)O)[C@@H](C)O)C(C)C)[C@@H](C)O)C(C)C)C(=O)N[C@@H](CC(C)C)C(=O)N[C@@H](CCC(=O)O)C(=O)NC(C)(C)C(=O)N[C@@H](CCCCN)C(N)=O
hGluc-R EC50 (pM) [1]: 190 pM | hGLP-1R EC50 (pM) [2]: 9.18 pM

B2: Peptide 477 (peptide)
peptide: H[Aib]QGTFTSDVSK[αMeF]LDTK([AEEA-AEEA-γGlu-C20 diacid])RAQDFVRWLLA[Aib]G-NH2
modifications: N-terminus assumed
SMILES: CC(C)C[C@H](NC(=O)[C@H](CC(C)C)NC(=O)[C@H](Cc1c[nH]c2ccccc12)NC(=O)[C@H](CCCNC(=N)N)NC(=O)[C@@H](NC(=O)[C@H](Cc1ccccc1)NC(=O)[C@H](CC(=O)O)NC(=O)[C@H](CCC(N)=O)NC(=O)[C@H](C)NC(=O)[C@H](CCCNC(=N)N)NC(=O)[C@H](CCCCNC(=O)COCCOCCNC(=O)COCCOCCNC(=O)CC[C@H](NC(=O)CCCCCCCCCCCCCCCCCCC(=O)O)C(=O)O)NC(=O)[C@@H](NC(=O)[C@H](CC(=O)O)NC(=O)[C@H](CC(C)C)NC(=O)[C@](C)(Cc1ccccc1)NC(=O)[C@H](CCCCN)NC(=O)[C@H](CO)NC(=O)[C@@H](NC(=O)[C@H](CC(=O)O)NC(=O)[C@H](CO)NC(=O)[C@@H](NC(=O)[C@H](Cc1ccccc1)NC(=O)[C@@H](NC(=O)CNC(=O)[C@H](CCC(N)=O)NC(=O)C(C)(C)NC(=O)[C@@H](N)Cc1c[nH]cn1)[C@@H](C)O)[C@@H](C)O)C(C)C)[C@@H](C)O)C(C)C)C(=O)N[C@@H](C)C(=O)NC(C)(C)C(=O)NCC(N)=O
hGluc-R EC50 (pM) [1]: 117 pM | hGLP-1R EC50 (pM) [2]: 54.1 pM

B3: Peptide 474 (peptide)
peptide: H[Aib]QGTFTSDVSK[αMeF]LDTK([AEEA-AEEA-γGlu-C18 diacid])RARDFVQWLLA[Aib]G-NH2
modifications: N-terminus assumed
SMILES: CC(C)C[C@H](NC(=O)[C@H](CC(C)C)NC(=O)[C@H](Cc1c[nH]c2ccccc12)NC(=O)[C@H](CCC(N)=O)NC(=O)[C@@H](NC(=O)[C@H](Cc1ccccc1)NC(=O)[C@H](CC(=O)O)NC(=O)[C@H](CCCNC(=N)N)NC(=O)[C@H](C)NC(=O)[C@H](CCCNC(=N)N)NC(=O)[C@H](CCCCNC(=O)COCCOCCNC(=O)COCCOCCNC(=O)CC[C@H](NC(=O)CCCCCCCCCCCCCCCCC(=O)O)C(=O)O)NC(=O)[C@@H](NC(=O)[C@H](CC(=O)O)NC(=O)[C@H](CC(C)C)NC(=O)[C@](C)(Cc1ccccc1)NC(=O)[C@H](CCCCN)NC(=O)[C@H](CO)NC(=O)[C@@H](NC(=O)[C@H](CC(=O)O)NC(=O)[C@H](CO)NC(=O)[C@@H](NC(=O)[C@H](Cc1ccccc1)NC(=O)[C@@H](NC(=O)CNC(=O)[C@H](CCC(N)=O)NC(=O)C(C)(C)NC(=O)[C@@H](N)Cc1c[nH]cn1)[C@@H](C)O)[C@@H](C)O)C(C)C)[C@@H](C)O)C(C)C)C(=O)N[C@@H](C)C(=O)NC(C)(C)C(=O)NCC(N)=O
hGluc-R EC50 (pM) [1]: 56.9 pM | hGLP-1R EC50 (pM) [2]: 8.04 pM

B4: Peptide 479 (peptide)
peptide: H[Aib]QGTFTSDVSK[αMeF]LDTK([AEEA-AEEA-γGlu-C20 diacid])RAQDFVRWLLE[Aib]K-NH2
modifications: N-terminus assumed
SMILES: CC(C)C[C@H](NC(=O)[C@H](Cc1c[nH]c2ccccc12)NC(=O)[C@H](CCCNC(=N)N)NC(=O)[C@@H](NC(=O)[C@H](Cc1ccccc1)NC(=O)[C@H](CC(=O)O)NC(=O)[C@H](CCC(N)=O)NC(=O)[C@H](C)NC(=O)[C@H](CCCNC(=N)N)NC(=O)[C@H](CCCCNC(=O)COCCOCCNC(=O)COCCOCCNC(=O)CC[C@H](NC(=O)CCCCCCCCCCCCCCCCCCC(=O)O)C(=O)O)NC(=O)[C@@H](NC(=O)[C@H](CC(=O)O)NC(=O)[C@H](CC(C)C)NC(=O)[C@](C)(Cc1ccccc1)NC(=O)[C@H](CCCCN)NC(=O)[C@H](CO)NC(=O)[C@@H](NC(=O)[C@H](CC(=O)O)NC(=O)[C@H](CO)NC(=O)[C@@H](NC(=O)[C@H](Cc1ccccc1)NC(=O)[C@@H](NC(=O)CNC(=O)[C@H](CCC(N)=O)NC(=O)C(C)(C)NC(=O)[C@@H](N)Cc1c[nH]cn1)[C@@H](C)O)[C@@H](C)O)C(C)C)[C@@H](C)O)C(C)C)C(=O)N[C@@H](CC(C)C)C(=O)N[C@@H](CCC(=O)O)C(=O)NC(C)(C)C(=O)N[C@@H](CCCCN)C(N)=O
hGluc-R EC50 (pM) [1]: 207 pM | hGLP-1R EC50 (pM) [2]: 34.2 pM

B5: Peptide 473 (peptide)
peptide: H[Aib]QGTFTSDVSK[αMeF]LDRK([AEEA-AEEA-γGlu-C18 diacid])RARDFVQWLL[Aib]E-NH2
modifications: N-terminus assumed
SMILES: CC(C)C[C@H](NC(=O)[C@H](Cc1c[nH]c2ccccc12)NC(=O)[C@H](CCC(N)=O)NC(=O)[C@@H](NC(=O)[C@H](Cc1ccccc1)NC(=O)[C@H](CC(=O)O)NC(=O)[C@H](CCCNC(=N)N)NC(=O)[C@H](C)NC(=O)[C@H](CCCNC(=N)N)NC(=O)[C@H](CCCCNC(=O)COCCOCCNC(=O)COCCOCCNC(=O)CC[C@H](NC(=O)CCCCCCCCCCCCCCCCC(=O)O)C(=O)O)NC(=O)[C@H](CCCNC(=N)N)NC(=O)[C@H](CC(=O)O)NC(=O)[C@H](CC(C)C)NC(=O)[C@](C)(Cc1ccccc1)NC(=O)[C@H](CCCCN)NC(=O)[C@H](CO)NC(=O)[C@@H](NC(=O)[C@H](CC(=O)O)NC(=O)[C@H](CO)NC(=O)[C@@H](NC(=O)[C@H](Cc1ccccc1)NC(=O)[C@@H](NC(=O)CNC(=O)[C@H](CCC(N)=O)NC(=O)C(C)(C)NC(=O)[C@@H](N)Cc1c[nH]cn1)[C@@H](C)O)[C@@H](C)O)C(C)C)C(C)C)C(=O)N[C@@H](CC(C)C)C(=O)NC(C)(C)C(=O)N[C@@H](CCC(=O)O)C(N)=O
hGluc-R EC50 (pM) [1]: 14.1 pM | hGLP-1R EC50 (pM) [2]: 11.5 pM

B6: Peptide 475 (peptide)
peptide: H[Aib]QGTFTSDVSK[αMeF]LDTK([AEEA-AEEA-γGlu-C20 diacid])RARDFVQWLLA[Aib]G-NH2
modifications: N-terminus assumed
SMILES: CC(C)C[C@H](NC(=O)[C@H](CC(C)C)NC(=O)[C@H](Cc1c[nH]c2ccccc12)NC(=O)[C@H](CCC(N)=O)NC(=O)[C@@H](NC(=O)[C@H](Cc1ccccc1)NC(=O)[C@H](CC(=O)O)NC(=O)[C@H](CCCNC(=N)N)NC(=O)[C@H](C)NC(=O)[C@H](CCCNC(=N)N)NC(=O)[C@H](CCCCNC(=O)COCCOCCNC(=O)COCCOCCNC(=O)CC[C@H](NC(=O)CCCCCCCCCCCCCCCCCCC(=O)O)C(=O)O)NC(=O)[C@@H](NC(=O)[C@H](CC(=O)O)NC(=O)[C@H](CC(C)C)NC(=O)[C@](C)(Cc1ccccc1)NC(=O)[C@H](CCCCN)NC(=O)[C@H](CO)NC(=O)[C@@H](NC(=O)[C@H](CC(=O)O)NC(=O)[C@H](CO)NC(=O)[C@@H](NC(=O)[C@H](Cc1ccccc1)NC(=O)[C@@H](NC(=O)CNC(=O)[C@H](CCC(N)=O)NC(=O)C(C)(C)NC(=O)[C@@H](N)Cc1c[nH]cn1)[C@@H](C)O)[C@@H](C)O)C(C)C)[C@@H](C)O)C(C)C)C(=O)N[C@@H](C)C(=O)NC(C)(C)C(=O)NCC(N)=O
hGluc-R EC50 (pM) [1]: 61.5 pM | hGLP-1R EC50 (pM) [2]: 6.75 pM

B7: Peptide 480 (peptide)
peptide: H[Aib]QGTFTSDVSK[αMeF]LDTK([AEEA-AEEA-γGlu-C18 diacid])RARDFVQWLLE[Aib]K-NH2
modifications: N-terminus assumed
SMILES: CC(C)C[C@H](NC(=O)[C@H](Cc1c[nH]c2ccccc12)NC(=O)[C@H](CCC(N)=O)NC(=O)[C@@H](NC(=O)[C@H](Cc1ccccc1)NC(=O)[C@H](CC(=O)O)NC(=O)[C@H](CCCNC(=N)N)NC(=O)[C@H](C)NC(=O)[C@H](CCCNC(=N)N)NC(=O)[C@H](CCCCNC(=O)COCCOCCNC(=O)COCCOCCNC(=O)CC[C@H](NC(=O)CCCCCCCCCCCCCCCCC(=O)O)C(=O)O)NC(=O)[C@@H](NC(=O)[C@H](CC(=O)O)NC(=O)[C@H](CC(C)C)NC(=O)[C@](C)(Cc1ccccc1)NC(=O)[C@H](CCCCN)NC(=O)[C@H](CO)NC(=O)[C@@H](NC(=O)[C@H](CC(=O)O)NC(=O)[C@H](CO)NC(=O)[C@@H](NC(=O)[C@H](Cc1ccccc1)NC(=O)[C@@H](NC(=O)CNC(=O)[C@H](CCC(N)=O)NC(=O)C(C)(C)NC(=O)[C@@H](N)Cc1c[nH]cn1)[C@@H](C)O)[C@@H](C)O)C(C)C)[C@@H](C)O)C(C)C)C(=O)N[C@@H](CC(C)C)C(=O)N[C@@H](CCC(=O)O)C(=O)NC(C)(C)C(=O)N[C@@H](CCCCN)C(N)=O
hGluc-R EC50 (pM) [1]: 136 pM | hGLP-1R EC50 (pM) [2]: 12.6 pM
